# Data reported in paper PMC7443878 (Proceedings of the National Academy of Sciences of the …, 2020).
# B1: His-MBP-RIPK3 (388–514) (domain or fragment)
# chain: SSDSMAQPPQTPETSTFRNQMPSPTSTGTPSPGPRGNQGAERQGMNWSCRTPEPNPVTGRPLVNIYNCSGVQVGDNNYLTMQQTTALPTWGLAPSGKGRGLQHPPPVGSQEGPKDPEAWSRPQGWYN
# Key:
# His-MBP-RIPK3 (388–514) = biological target: B1; assay: pull-down
# MBP-MYC (1–144) = MBP-MYC (1–144) (UniProt P01106-1 1-144); assay: pull-down
# Chain of MBP-MYC (1–144) (P01106 16-159): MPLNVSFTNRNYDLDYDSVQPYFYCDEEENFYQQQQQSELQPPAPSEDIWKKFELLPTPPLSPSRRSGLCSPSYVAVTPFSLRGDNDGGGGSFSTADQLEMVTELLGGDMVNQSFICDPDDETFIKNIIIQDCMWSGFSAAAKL
Binder,binding result (His-MBP-RIPK3 (388–514)),binding result (MBP-MYC (1–144))
recombinant MBP-RIPK1 RHIM domain (496–583) (domain or fragment) HMPSLHNIPVPETNYLGNTPTMPFSSLPPTDESIKYTIYNSTGIQIGAYNYMEIGGTSSSLLDSTNTNFKEEPAAKYQAIFDNTTSLT,binds,
B1,,binds
